Experimental data reported in publication PMC3906306 (mAbs, 2013).

B1: hu225 VL:G30Y (antibody, V domains shown)
VH: EVQLVESGGGLVQPGGSLRLSCAASGFSLTNYGVHWVRQAPGKGLEWLGVIWSGGNTDYNTPFTSRLTINKDNSKNTVYLQMNSLRAEDTAVYYCARALTYYDYEFAYWGQGTLVTVSS
VL: DILLTQSPGTLSLSPGERATLSCRASQSIYTNIHWYQQKPGQAPRLLIKYASESISGIPDRFSGSGSGTDFTLTISRLEPEDFAVYYCQQNNNWPTTFGQGTKLEIK

Target: EGFR extracellular domain-Cλ fusion protein (Homo sapiens, UniProt P00533)
Assay: SPR

B1 showed a Kd of 1.8 nM.

Target: EGFR extracellular domain-Cλ fusion protein (Homo sapiens) (UniProt P00533)
Assay: SPR

Going from hu225 VH:F100cY (antibody) to hu225 VH:G33D (antibody), the Kd falls from 4 nM to 1.9 nM (2.1-fold). The second binds more tightly here.

First: hu225 VH:T57G (antibody)
Second: hu225 VH:T97D (antibody)
The Kd of the first is 2.4-fold higher: 3.9 nM for the first, 1.6 nM for the second.

First: hu225 VH:V50L (antibody)
Second: hu225 VH:Y32R (antibody)
The Kd of the first is 2.2-fold lower: 3.1 nM for the first, 6.8 nM for the second.

hu225 VL:A25V (antibody) was tested, and the Kd was 3 nM.
